Source: paper PMC6656775, “Soluble and membrane-bound protein carrier mediate direct copper transport to the ethylene receptor family” (Scientific Reports, 2019)

T1: RAN1, full-length, purified recombinant (A. thaliana, UniProt Q9S7J8 1-1001, AlexaFluor488-NHS label)
T1 construct: P1B-type copper ATPase RAN1 (HMA7), Arabidopsis thaliana, full-length; also called full-length RAN1; HMA7; source: E. coli BL21 (DE3) or C43 (DE3), pETEV16b, solubilised with DDM, purified (HisTrap, TEV, Superdex200)
T1 sequence (looked up): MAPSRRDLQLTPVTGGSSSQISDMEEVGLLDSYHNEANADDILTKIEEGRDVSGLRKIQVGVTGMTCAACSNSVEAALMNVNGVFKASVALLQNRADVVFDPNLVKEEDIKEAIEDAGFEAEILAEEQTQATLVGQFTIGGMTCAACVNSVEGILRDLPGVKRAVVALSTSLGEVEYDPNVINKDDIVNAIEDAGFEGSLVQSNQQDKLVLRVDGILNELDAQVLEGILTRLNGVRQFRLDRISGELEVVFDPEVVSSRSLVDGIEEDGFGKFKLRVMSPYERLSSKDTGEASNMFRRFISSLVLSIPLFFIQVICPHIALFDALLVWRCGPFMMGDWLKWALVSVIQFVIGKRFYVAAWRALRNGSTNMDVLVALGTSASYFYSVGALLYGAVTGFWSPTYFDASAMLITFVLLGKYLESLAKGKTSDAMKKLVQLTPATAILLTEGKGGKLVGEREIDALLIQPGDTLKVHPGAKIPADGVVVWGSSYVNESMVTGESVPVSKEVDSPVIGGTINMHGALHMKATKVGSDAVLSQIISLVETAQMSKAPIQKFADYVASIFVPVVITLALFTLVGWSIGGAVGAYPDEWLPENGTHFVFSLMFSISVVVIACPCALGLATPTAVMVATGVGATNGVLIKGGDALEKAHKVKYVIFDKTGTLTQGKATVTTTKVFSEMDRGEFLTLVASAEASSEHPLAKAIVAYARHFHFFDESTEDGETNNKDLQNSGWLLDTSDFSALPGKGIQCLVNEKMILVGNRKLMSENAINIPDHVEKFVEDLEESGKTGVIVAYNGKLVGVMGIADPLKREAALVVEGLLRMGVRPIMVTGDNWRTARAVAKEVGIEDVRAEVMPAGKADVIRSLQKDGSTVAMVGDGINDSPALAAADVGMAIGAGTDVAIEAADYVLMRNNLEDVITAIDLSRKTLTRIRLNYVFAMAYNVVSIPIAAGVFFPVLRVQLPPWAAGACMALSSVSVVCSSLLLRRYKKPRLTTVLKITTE

T2: CterRAN1 (amino acids 299–1001), purified recombinant (A. thaliana, UniProt Q9S7J8 299-1001, AlexaFluor488-NHS label)
T2 construct: RAN1 (HMA7), Arabidopsis thaliana, amino acids 299-1001 (transmembrane copper transport site); also called CterRAN1 mutant; source: E. coli BL21 (DE3) or C43 (DE3), pETEV16b, solubilised with DDM, purified (HisTrap, TEV, Superdex200)
T2 sequence (looked up): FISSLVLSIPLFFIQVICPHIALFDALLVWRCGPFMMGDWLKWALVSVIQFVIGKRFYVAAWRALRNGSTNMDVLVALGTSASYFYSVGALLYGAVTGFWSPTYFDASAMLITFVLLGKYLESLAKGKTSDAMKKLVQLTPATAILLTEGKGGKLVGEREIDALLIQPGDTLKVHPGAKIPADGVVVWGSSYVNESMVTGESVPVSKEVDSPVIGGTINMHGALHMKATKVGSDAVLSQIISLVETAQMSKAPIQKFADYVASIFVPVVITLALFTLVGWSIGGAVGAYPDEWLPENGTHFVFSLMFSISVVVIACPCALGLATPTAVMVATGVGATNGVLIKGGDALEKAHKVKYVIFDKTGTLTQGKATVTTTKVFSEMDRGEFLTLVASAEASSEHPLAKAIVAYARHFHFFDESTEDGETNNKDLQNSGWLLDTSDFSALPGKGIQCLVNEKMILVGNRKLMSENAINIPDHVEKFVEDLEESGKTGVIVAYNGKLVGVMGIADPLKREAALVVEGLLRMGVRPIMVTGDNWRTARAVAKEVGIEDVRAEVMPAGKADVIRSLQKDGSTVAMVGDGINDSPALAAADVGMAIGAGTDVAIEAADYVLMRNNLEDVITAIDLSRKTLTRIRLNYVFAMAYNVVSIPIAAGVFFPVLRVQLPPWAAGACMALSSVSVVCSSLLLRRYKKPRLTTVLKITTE

B1: ETR1^1–157, purified recombinant (domain or fragment, A. thaliana, UniProt P49333 1-157, looked up)
chain: MEVCNCIEPQWPADELLMKYQYISDFFIAIAYFSIPLELIYFVKKSAVFPYRWVLVQFGAFIVLCGATHLINLWTFTTHSRTVALVMTTAKVLTAVVSCATALMLVHIIPDLLSVKTRELFLKNKAAELDREMGLIRTQEETGRHVRMLTHEIRSTL
notes: In detergent (FosCholine-16); also called purified ETR1
B2: ATX1, purified recombinant (natural protein, A. thaliana, UniProt Q94BT9 1-76, looked up)
chain: MSQTVVLRVAMTCEGCVGAVKRVLGKMEGVESFDVDIKEQKVTVKGNVQPDAVLQTVTKTGKKTAFWEAEGETAKA
modifications: AlexaFluor488-NHS label where it was the labelled partner (with ETR1^1–157 and ETR1^306–738); unlabelled where titrated
notes: soluble copper chaperone ATX1, Arabidopsis thaliana; Preloaded with Cu(I) in the copper transfer assay; also called Cu(I)-ATX1; source: E. coli BL21 (DE3) or C43 (DE3), pETEV16b, purified (HisTrap, TEV, Superdex200)
B3: CCH, full-length, purified recombinant (natural protein, A. thaliana, UniProt O82089 1-121, looked up)
chain: MAQTVVLKVGMSCQGCVGAVNRVLGKMEGVESFDIDIKEQKVTVKGNVEPEAVFQTVSKTGKKTSYWPVEAEAEPKAEADPKVETVTETKTEAETKTEAKVDAKADVEPKAAEAETKPSQV
modifications: AlexaFluor488-NHS label where it was the labelled partner (with ETR1^1–157 and ETR1^306–738); unlabelled where titrated
notes: soluble copper chaperone CCH, Arabidopsis thaliana, full-length; Preloaded with Cu(I) in the copper transfer assay; also called CCH wildtype; full-length CCH; source: E. coli BL21 (DE3) or C43 (DE3), pETEV16b, purified (HisTrap, TEV, Superdex200)
B4: CCHΔ, deletion mutant of CCH lacking the C-terminal extension, purified recombinant (domain or fragment)
chain: MAQTVVLKVGMSCQGCVGAVNRVLGKMEGVESFDIDIKEQKVTVKGNVEPEAVFQTVSKTGKKTSYWPVEAEAEPK
modifications: AlexaFluor488-NHS label where it was the labelled partner (with ETR1^1–157 and ETR1^306–738); unlabelled where titrated
B5: ETR1^306–738, purified recombinant (domain or fragment, A. thaliana, UniProt P49333 306-738, looked up)
chain: ALSHAAILEESMRARDLLMEQNVALDLARREAETAIRARNDFLAVMNHEMRTPMHAIIALSSLLQETELTPEQRLMVETILKSSNLLATLMNDVLDLSRLEDGSLQLELGTFNLHTLFREVLNLIKPIAVVKKLPITLNLAPDLPEFVVGDEKRLMQIILNIVGNAVKFSKQGSISVTALVTKSDTRAADFFVVPTGSHFYLRVKVKDSGAGINPQDIPKIFTKFAQTQSLATRSSGGSGLGLAISKRFVNLMEGNIWIESDGLGKGCTAIFDVKLGISERSNESKQSGIPKVPAIPRHSNFTGLKVLVMDENGVSRMVTKGLLVHLGCEVTTVSSNEECLRVVSHEHKVVFMDVCMPGVENYQIALRIHEKFTKQRHQRPLLVALSGNTDKSTKEKCMSFGLDGVLLKPVSLDNIRDVLSDLLEPRVLYEGM
notes: also called extra-membranous part of ETR1; soluble extra-membranous part of the receptor
B6: NterRAN1 (amino acids 1–298), purified recombinant (domain or fragment, A. thaliana, UniProt Q9S7J8 1-298, looked up)
chain: MAPSRRDLQLTPVTGGSSSQISDMEEVGLLDSYHNEANADDILTKIEEGRDVSGLRKIQVGVTGMTCAACSNSVEAALMNVNGVFKASVALLQNRADVVFDPNLVKEEDIKEAIEDAGFEAEILAEEQTQATLVGQFTIGGMTCAACVNSVEGILRDLPGVKRAVVALSTSLGEVEYDPNVINKDDIVNAIEDAGFEGSLVQSNQQDKLVLRVDGILNELDAQVLEGILTRLNGVRQFRLDRISGELEVVFDPEVVSSRSLVDGIEEDGFGKFKLRVMSPYERLSSKDTGEASNMFRR
modifications: AlexaFluor488-NHS label
notes: RAN1 (HMA7), Arabidopsis thaliana, cytosolic N-terminal region, amino acids 1-298; source: E. coli BL21 (DE3) or C43 (DE3), pETEV16b, purified (HisTrap, TEV, Superdex200)

Experiments:
[1] = molecular target: CterRAN1 (amino acids 299–1001), purified recombinant (A. thaliana) (UniProt Q9S7J8); test: MST; AlexaFluor488-labelled RAN1 or CterRAN1 (20 nM, 50 mM HEPES, 300 mM NaCl, 0.1% DDM, pH 7.5) or NterRAN1 (40 nM, 0.05% Tween20); ETR1^1–157 titrated 10 µM to 0.3 nM in buffer with 0.015% FosCholine-16; triplicates
[2] = molecular target: T1, RAN1, full-length, purified recombinant; test: as above; conditions: both partners purified
[3] = molecular target: B6; test: as above; conditions: both partners purified
[4] = molecular target: T1, RAN1, full-length, purified recombinant; test: MST; AlexaFluor488-labelled RAN1 or CterRAN1 (15 nM, 50 mM HEPES, 300 mM NaCl, 0.1% DDM, pH 7.5) or NterRAN1 (50 nM, same buffer without DDM, 0.05% Tween20); ATX1, CCH or CCHΔ titrated 30 µM to 0.9 nM; triplicates; apparent dissociation constants; conditions: both partners purified
[5] = molecular target: B1; test: MST; AlexaFluor488-labelled ATX1 (75 nM), CCH (100 nM) or CCHΔ (50 nM) in 50 mM HEPES, 300 mM NaCl, pH 7.5, 0.015% FosCholine-16, 0.05% Tween20; ETR1^1–157 titrated 7.5 µM to 0.2 nM; triplicates; apparent dissociation constants; conditions: both partners purified
[6] = molecular target: T2, CterRAN1 (amino acids 299–1001), …; test: MST; AlexaFluor488-labelled RAN1, CterRAN1, NterRAN1, ATX1, CCH or CCHΔ (50 nM) in buffer D (50 mM Tris, 250 mM NaCl, 0.015% FosCholine16, 2.5 mM DTT, 20% glycerol, pH 8.5); ETR1^306–738 titrated 37 µM to 1.1 nM; triplicates; conditions: both partners purified
[7] = molecular target: T1, RAN1, full-length, purified recombinant; test: as above; conditions: both partners purified
[8] = molecular target: B5; test: as above; conditions: both partners purified

Row | Binder | Kd [4] [nM] | Kd [5] [nM] | also measured
1 | B1 | – | – | Kd [1]: 2610 nM; Kd [2]: 33 ± 8 nM; Kd [3]: 205 ± 35 nM
2 | B2 | 41 ± 11 | 313 ± 74 | –
3 | B3 | 55 ± 13 | 526 ± 101 | –
4 | B4 | 77 ± 24 | 376 ± 93 | –
5 | B5 | – | – | Kd [6]: 211 ± 38 nM; Kd [7]: 71 ± 17 nM
6 | B6 | – | – | Kd [8]: 3480 ± 315 nM
